15 molecules from patent US20240343800A1 (Merck KGaA, published 2024) can be followed below.

B1: Parental 1F3.5 (CD3-binding bispecific TCE of Table 30) (bispecific antibody, V domains shown)
VH: EVQLVESGGGLVQPGGSLRLSCAASGFTFNTYAMNWVRQAPGKGLEWVARIRSKYNNYATYYADSVKDRFTISRDDSKNTLYLQMNSLRAEDTAVYYCVRHGNFGNSYVSWFAYWGQGTMVTVSS
VL: QAVVTQEPSLTVSPGGTVTLTCRSSTGAVTTSNYANWVQQKPGQAPRGLIGGTNKRAPGTPARFSGSLLGGKAALTLSGVQPEDEAEYYCALWYSNLWVFGGGTKLTVLG
notes: also called IF3.5
B2: 1F3.5 VL1.00-VH1.05 (CD3-binding bispecific TCE of Table 30) (bispecific antibody, V domains shown)
VH: EVQLVESGGGLVQPGGSLKLSCAASGFTFNTYAMNWVRQASGKGLEWVGRIRSKYNNYATYYADSVKGRFTISRDDSKNTAYLQMNSLKTEDTAVYYCVRHGNFGNAYVSFAYWGQGTMVTVSS
VL: QAVVTQEPSLTVSPGGTVTLTCRSSTGAVTTSNYANWVQQKPGQAPRGLIGGTNKRAPGTPARFSGSLLGGKAALTLSGVQPEDEAEYYCALWYSNLWVFGGGTKLTVLG
notes: CD3 Fab arm only; VL1.00 read as the parental 1F3.5 light chain
B3: 1F3.5 VL1.01-VH1.03 (CD3-binding bispecific TCE of Table 30) (bispecific antibody, V domains shown)
VH: EVQLVESGGGLVQPGGSLKLSCAASGFTFNTYAMNWVRQASGKGLEWVGRIRSKYNNYATYYADSVKGRFTISRDDSKNTLYLQMNSLKTEDTAVYYCVRHGNFGASYVSWFAYWGQGTMVTVSS
VL: QTVVTQEPSLTVSPGGTVTLTCASSTGAVTTSNYANWVQQKPGQAPRALIGGTNKRAPGTPARFSGSLLGGKAALTLSGVQPEDEAEYYCALWYSNLWVFGGGTKLTVLG
notes: CD3 Fab arm only
B4: 1F3.5 VL1.00-VH1.04 (CD3-binding bispecific TCE of Table 30) (bispecific antibody, V domains shown)
VH: EVQLVESGGGLVQPGGSLKLSCAASGFTFNTYAMNWVRQASGKGLEWVGRIRSKYNNYATYYADSVKGRFTISRDDSKNTLYLQMNSLKTEDTAVYYCVRHGNFGESYVSWFAYWGQGTMVTVSS
VL: QAVVTQEPSLTVSPGGTVTLTCRSSTGAVTTSNYANWVQQKPGQAPRGLIGGTNKRAPGTPARFSGSLLGGKAALTLSGVQPEDEAEYYCALWYSNLWVFGGGTKLTVLG
notes: as for B2
B5: 1F3.5 VL1.01-VH1.04 (CD3-binding bispecific TCE of Table 30) (bispecific antibody, V domains shown)
VH: EVQLVESGGGLVQPGGSLKLSCAASGFTFNTYAMNWVRQASGKGLEWVGRIRSKYNNYATYYADSVKGRFTISRDDSKNTLYLQMNSLKTEDTAVYYCVRHGNFGESYVSWFAYWGQGTMVTVSS
VL: QTVVTQEPSLTVSPGGTVTLTCASSTGAVTTSNYANWVQQKPGQAPRALIGGTNKRAPGTPARFSGSLLGGKAALTLSGVQPEDEAEYYCALWYSNLWVFGGGTKLTVLG
notes: CD3 Fab arm only
B6: 1F3.5 VL1.01-VH1.05 (CD3-binding bispecific TCE of Table 30) (bispecific antibody, V domains shown)
VH: EVQLVESGGGLVQPGGSLKLSCAASGFTFNTYAMNWVRQASGKGLEWVGRIRSKYNNYATYYADSVKGRFTISRDDSKNTAYLQMNSLKTEDTAVYYCVRHGNFGNAYVSFAYWGQGTMVTVSS
VL: QTVVTQEPSLTVSPGGTVTLTCASSTGAVTTSNYANWVQQKPGQAPRALIGGTNKRAPGTPARFSGSLLGGKAALTLSGVQPEDEAEYYCALWYSNLWVFGGGTKLTVLG
notes: CD3 Fab arm only
B7: 1F3.5 VL1.01-VH1.02 (CD3-binding bispecific TCE of Table 30) (bispecific antibody, V domains shown)
VH: EVQLVESGGGLVQPGGSLKLSCAASGFTFNTYAMNWVRQASGKGLEWVGRIRSKYNNYATYYADSVKGRFTISRDDSKNTAYLQMNSLKTEDTAVYYCVRHGNFGNSYVSWFAYWGQGTMVTVSS
VL: QTVVTQEPSLTVSPGGTVTLTCASSTGAVTTSNYANWVQQKPGQAPRALIGGTNKRAPGTPARFSGSLLGGKAALTLSGVQPEDEAEYYCALWYSNLWVFGGGTKLTVLG
notes: CD3 Fab arm only
B8: 1F3.5 VL1.01-VH1.00 (CD3-binding bispecific TCE of Table 30) (bispecific antibody, V domains shown)
VH: EVQLVESGGGLVQPGGSLRLSCAASGFTFNTYAMNWVRQAPGKGLEWVARIRSKYNNYATYYADSVKDRFTISRDDSKNTLYLQMNSLRAEDTAVYYCVRHGNFGNSYVSWFAYWGQGTMVTVSS
VL: QTVVTQEPSLTVSPGGTVTLTCASSTGAVTTSNYANWVQQKPGQAPRALIGGTNKRAPGTPARFSGSLLGGKAALTLSGVQPEDEAEYYCALWYSNLWVFGGGTKLTVLG
notes: CD3 Fab arm only; VH1.00 read as the parental 1F3.5 heavy chain
B9: 1F3.5 VL1.00-VH1.01 (CD3-binding bispecific TCE of Table 30) (bispecific antibody, V domains shown)
VH: EVQLVESGGGLVQPGGSLKLSCAASGFTFNTYAMNWVRQASGKGLEWVGRIRSKYNNYATYYADSVKGRFTISRDDSKNTLYLQMNSLKTEDTAVYYCVRHGNFGNSYVSWFAYWGQGTMVTVSS
VL: QAVVTQEPSLTVSPGGTVTLTCRSSTGAVTTSNYANWVQQKPGQAPRGLIGGTNKRAPGTPARFSGSLLGGKAALTLSGVQPEDEAEYYCALWYSNLWVFGGGTKLTVLG
notes: CD3 Fab arm only
B10: 1F3.5 VL1.00-VH1.03 (high) (CD3-binding bispecific TCE of Table 30) (bispecific antibody, V domains shown)
VH: EVQLVESGGGLVQPGGSLKLSCAASGFTFNTYAMNWVRQASGKGLEWVGRIRSKYNNYATYYADSVKGRFTISRDDSKNTLYLQMNSLKTEDTAVYYCVRHGNFGASYVSWFAYWGQGTMVTVSS
VL: QAVVTQEPSLTVSPGGTVTLTCRSSTGAVTTSNYANWVQQKPGQAPRGLIGGTNKRAPGTPARFSGSLLGGKAALTLSGVQPEDEAEYYCALWYSNLWVFGGGTKLTVLG
notes: CD3 Fab arm only; VL1.00 read as the parental 1F3.5 light chain; also called 1F3.5-VH1.03
B11: 1F3.5 VL1.01-VH1.01 (low) (CD3-binding bispecific TCE of Table 30) (bispecific antibody, V domains shown)
VH: EVQLVESGGGLVQPGGSLKLSCAASGFTFNTYAMNWVRQASGKGLEWVGRIRSKYNNYATYYADSVKGRFTISRDDSKNTLYLQMNSLKTEDTAVYYCVRHGNFGNSYVSWFAYWGQGTMVTVSS
VL: QTVVTQEPSLTVSPGGTVTLTCASSTGAVTTSNYANWVQQKPGQAPRALIGGTNKRAPGTPARFSGSLLGGKAALTLSGVQPEDEAEYYCALWYSNLWVFGGGTKLTVLG
notes: CD3 Fab arm only; also called 1F3.5-VH1.01-VL1.01
B12: 1F3.5 VL1.00-VH1.02 (CD3-binding bispecific TCE of Table 30) (bispecific antibody, V domains shown)
VH: EVQLVESGGGLVQPGGSLKLSCAASGFTFNTYAMNWVRQASGKGLEWVGRIRSKYNNYATYYADSVKGRFTISRDDSKNTAYLQMNSLKTEDTAVYYCVRHGNFGNSYVSWFAYWGQGTMVTVSS
VL: QAVVTQEPSLTVSPGGTVTLTCRSSTGAVTTSNYANWVQQKPGQAPRGLIGGTNKRAPGTPARFSGSLLGGKAALTLSGVQPEDEAEYYCALWYSNLWVFGGGTKLTVLG
notes: as for B2
B13: 82H02 (bispecific TCE of Table 29) (bispecific antibody, V domains shown)
VH: EVQLLESGGGLVQPGGSLRLSCAASGFTFTSYAMSWVRQAPGKGLEWVSTISGSGGGTYYTDSVKGRFTISRDNSKNTLYLQMNSLRAEDTAVYYCAQGSSIFDYWGQGTLVTVSS
VL: EIVLTQSPATLSLSPGERATLSCRASQSVSSYLAWYQQKPGQAPRLLIYDASNRATGIPARFSGSGSGTDFTLTISSLEPEDFAVYYCQQRSNWPPCTFGQGTRLEIK
B14: 82H02 VL1.02 (bispecific TCE of Table 29) (bispecific antibody, V domains shown)
VH: EVQLLESGGGLVQPGGSLRLSCAASGFTFTSYAMSWVRQAPGKGLEWVSTISGSGGGTYYTDSVKGRFTISRDNSKNTLYLQMNSLRAEDTAVYYCAQGSSIFDYWGQGTLVTVSS
VL: EIVLTQSPATLSLSPGERATLSCRASQSVSSYLAWYQQKPGQAPRLLIYDASNRATGIPARFSGSGSGTDFTLTISSLEPEDFAVYYCQQRSNWPPRTFGQGTRLEIK
notes: also called 82H02 v1.02
B15: 69A02 (bispecific TCE of Table 29) (bispecific antibody, V domains shown)
VH: QVTLKESGPTLVKPTQTLTLTCSFSGFSITTSGVSVGWIRQPPGKALEWLALIYWDDDKRYSPSLKSRLTITRDTSKNQVVLTMTNMDPVDTATYYCAHAPRYTPGGYFDYWGQGTLVTVSS
VL: ETTLTQSPATLSVSPGETATLSCRASQSVSSNLAWYQQKPGQAPRLLIYGASTRATGIPATFSGSGSGTEFTLTISSLQSEDFAIYYCQQYKNWPPAFGGGTELEIK

The target of the first assay is T1, recombinant human CD3ε/δ heterodimer SEED Fc fusion protein (human, UniProt P07766 23-126; P04234 22-105).
T1 construct: not shown: SEED Fc arm, not specified
T1 sequence (P07766 23-126, stated change not applied, chain 1 of 2): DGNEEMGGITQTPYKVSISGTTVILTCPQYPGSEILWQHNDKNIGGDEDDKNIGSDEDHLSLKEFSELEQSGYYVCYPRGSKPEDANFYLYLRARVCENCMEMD
T1 sequence (P04234 22-105, stated change not applied, chain 2 of 2): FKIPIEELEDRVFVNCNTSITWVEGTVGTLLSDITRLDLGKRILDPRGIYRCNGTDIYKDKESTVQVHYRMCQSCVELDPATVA
The experiment in a line: biolayer interferometry, TCE immobilized. The text has this: (§1) This example describes biolayer interferometry experiments that were used to determine the binding affinities of bispecific TCEs and sequence optimized variants of the present disclosure.
Turning to B1, the Kd was 2.7 nM.

Regarding B2, the Kd is 8.2 nM. Regarding B3, the Kd worked out at 84.8 nM. Same read-out and setting: next, B4: 6.5 nM; B5: 74.2 nM; B6: 59.2 nM. Same read-out and setting: next, B7: 47.1 nM; B8: 62.3 nM; B9: 2.9 nM.

For B10, the Kd came out at 4.6 nM.

As for B11, the Kd is 42 nM. With B12, the Kd is 5.5 nM.

The target in the next assay is T2, recombinant human ROR1 extracellular domain protein (human, UniProt Q01973 30-406).
T2 construct: also called Human/Cyno ROR1
The experiment in a line: biolayer interferometry, TCE immobilized.
Text: as §1
Regarding B13, the Kd worked out at 5.4 nM. For the molecule B14, the Kd turned out to be 122 nM. With B15, the Kd was 3.5 nM.
